Reference: PMC12786276

Molecular target: CD47 (endogenously expressed in MDA-MB-231 cells) (human (endogenous in MDA-MB-231)) (UniProt Q08722)
Sequence of UniProt Q08722 (Q08722 19-323): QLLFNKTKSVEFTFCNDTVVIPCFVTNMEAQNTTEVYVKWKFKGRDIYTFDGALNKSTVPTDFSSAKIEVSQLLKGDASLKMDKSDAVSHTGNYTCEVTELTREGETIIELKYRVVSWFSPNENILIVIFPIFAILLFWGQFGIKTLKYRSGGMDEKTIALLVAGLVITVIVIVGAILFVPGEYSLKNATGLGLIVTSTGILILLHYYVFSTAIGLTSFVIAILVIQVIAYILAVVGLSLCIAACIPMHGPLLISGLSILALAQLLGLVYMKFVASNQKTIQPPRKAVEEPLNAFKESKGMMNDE

Row | phagocytosis of MDA-MB-231 cells by macrophages (flow cytometry) after PSFL-NK13 (4 µM, 48 h) | Substance
1 | 3 fold | integrin β3 subunit (endogenously expressed in MDA-MB-231 cells) (from UniProt P05106 27-788) (natural protein)
2 | 3 fold | integrin αv subunit (endogenously expressed in MDA-MB-231 cells) (natural protein)
